Source: patent US20180148504A1

Legend:
[1] = biological target: recombinant purified FRα (ECL assay calibrator) (human) (UniProt P15328); test: ECL sandwich capture 1A8.G11.E7 / detection 30G6.G6.G4.E9; calibrator incubated overnight with 10 µg/mL MORAb-003
[2] = biological target: recombinant purified FRα (ECL assay calibrator) (human) (UniProt P15328); test: ECL sandwich competition; competitors 9F3 capture / 24F12 detection; FRα standard STD05; MORAb-003 50 µg/mL
[3] = biological target: recombinant purified FRα (ECL assay calibrator) (human) (UniProt P15328); test: ECL sandwich competition; competitors 9F3 capture / 24F12 detection; FRα standard STD07; MORAb-003 10 µg/mL
[4] = biological target: endogenous folate receptor alpha in human serum and plasma samples (human) (UniProt P15328); test: ECL sandwich capture 24H8.F3 / detection 30G6.G6.G4.E9; serum incubated overnight with 10 µg/mL MORAb-003
[5] = biological target: endogenous folate receptor alpha in human serum and plasma samples (human) (UniProt P15328); test: ECL sandwich capture 19D4.B7 / detection 26A9.C4; serum incubated overnight with 10 µg/mL MORAb-003
[6] = biological target: endogenous folate receptor alpha in human serum and plasma samples (human) (UniProt P15328); test: ECL sandwich capture 1C6.E12.G8 / detection 19D4.B7; serum incubated overnight with 10 µg/mL MORAb-003
[7] = biological target: endogenous folate receptor alpha in human serum and plasma samples (human) (UniProt P15328); test: ECL sandwich competition; competitors 24H8.D3 capture / 19D4.B7 detection; serum samples; MORAb-003 100 µg/mL
[8] = biological target: recombinant purified FRα (ECL assay calibrator) (human) (UniProt P15328); test: ECL sandwich capture 19D2.G9 / detection 6A2.G7; calibrator incubated overnight with 10 µg/mL MORAb-003
[9] = biological target: recombinant purified FRα (ECL assay calibrator) (human) (UniProt P15328); test: ECL sandwich capture 6A2.G7 / detection 2F11.F8; calibrator incubated overnight with 10 µg/mL MORAb-003
[10] = biological target: recombinant purified FRα (ECL assay calibrator) (human) (UniProt P15328); test: ECL sandwich capture 1D2.G8.G10 / detection 30G6.G6.G4.E9; calibrator incubated overnight with 10 µg/mL MORAb-003
[11] = biological target: endogenous folate receptor alpha in human serum and plasma samples (human) (UniProt P15328); test: ECL sandwich competition; competitors 24H8.D3 capture / 19D4.B7 detection; plasma of sample #DLSO-015; MORAb-003 100 µg/mL
[12] = biological target: recombinant purified FRα (ECL assay calibrator) (human) (UniProt P15328); test: ECL sandwich competition; competitors 9F3 capture / 24F12 detection; FRα standard STD01; MORAb-003 10 µg/mL
[13] = biological target: endogenous folate receptor alpha in human serum and plasma samples (human) (UniProt P15328); test: ECL sandwich capture 19D4.B7 / detection 24H8.D3; serum incubated overnight with 10 µg/mL MORAb-003
[14] = biological target: recombinant purified FRα (ECL assay calibrator) (human) (UniProt P15328); test: ECL sandwich capture 30G6.G6.G4.E9 / detection 1D2.G8.G10; calibrator incubated overnight with 10 µg/mL MORAb-003
[15] = biological target: recombinant purified FRα (ECL assay calibrator) (human) (UniProt P15328); test: ECL sandwich capture 6A2.G7 / detection 30G6.G6.G4.E9; calibrator incubated overnight with 10 µg/mL MORAb-003
[16] = biological target: recombinant purified FRα (ECL assay calibrator) (human) (UniProt P15328); test: ECL sandwich capture 30G6.G6.G4.E9 / detection 5C12.H8; calibrator incubated overnight with 10 µg/mL MORAb-003
[17] = biological target: endogenous folate receptor alpha in human serum and plasma samples (human) (UniProt P15328); test: ECL sandwich capture 1D2.G8.G10 / detection 19D4.B7; serum incubated overnight with 10 µg/mL MORAb-003
[18] = biological target: recombinant purified FRα (ECL assay calibrator) (human) (UniProt P15328); test: ECL sandwich capture 30G6.G6.G4.E9 / detection 26A9.C4; calibrator incubated overnight with 10 µg/mL MORAb-003
[19] = biological target: recombinant purified FRα (ECL assay calibrator) (human) (UniProt P15328); test: ECL sandwich capture 19D4.B7 / detection 24H8.D3; calibrator incubated overnight with 10 µg/mL MORAb-003
[20] = biological target: endogenous folate receptor alpha in human serum and plasma samples (human) (UniProt P15328); test: ECL sandwich capture 26A9.C4 / detection 19D4.B7; serum incubated overnight with 10 µg/mL MORAb-003
[21] = biological target: recombinant purified FRα (ECL assay calibrator) (human) (UniProt P15328); test: ECL sandwich competition; competitors 9F3 capture / 24F12 detection; FRα standard STD04; MORAb-003 50 µg/mL
[22] = biological target: recombinant purified FRα (ECL assay calibrator) (human) (UniProt P15328); test: ECL sandwich capture 19D4.B7 / detection 19D2.G9; calibrator incubated overnight with 10 µg/mL MORAb-003
[23] = biological target: recombinant purified FRα (ECL assay calibrator) (human) (UniProt P15328); test: ECL sandwich capture 24H8.D3 / detection 30G6.G6.G4.E9; calibrator incubated overnight with 10 µg/mL MORAb-003
[24] = biological target: recombinant purified FRα (ECL assay calibrator) (human) (UniProt P15328); test: ECL sandwich competition; competitors 9F3 capture / 24F12 detection; FRα standard STD01; MORAb-003 50 µg/mL

Chain of recombinant purified FRα (ECL assay calibrator) (human) (P15328 25-234 limits assumed): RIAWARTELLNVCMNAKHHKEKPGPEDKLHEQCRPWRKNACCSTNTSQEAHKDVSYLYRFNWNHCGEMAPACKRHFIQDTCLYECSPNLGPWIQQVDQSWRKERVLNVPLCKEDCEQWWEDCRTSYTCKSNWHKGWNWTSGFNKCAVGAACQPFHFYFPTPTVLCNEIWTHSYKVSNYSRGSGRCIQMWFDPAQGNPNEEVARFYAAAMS
Chain of endogenous folate receptor alpha in human serum and plasma samples (human) (P15328 25-234 limits assumed, form in doubt): as the sequence (P15328 25-234 limits assumed) above

B1: farletuzumab (MORAb-003) (antibody, part only; not given: Constant regions, V domains shown, not shown: another chain or arm of the molecule)
VH: EVQLVESGGGVVQPGRSLRLSCSASGFTFSGYGLSWVRQAPGKGLEWVAMISSGGSYTYYADSVKGRFAISRDNAKNTLFLQMDSLRPEDTGVYFCARHGDDPAWFAYWGQGTPVTVSS
VL: DIQLTQSPSSLSASVGDRVTITCSVSSSISSNNLHWYQQKPGKAPKPWIYGTSNLASGVPSRFSGSGSGTDYTFTISSLQPEDIATYYCQQWSSYPYMYTFGQGTKVEIK
[1]
  Drug Suppression of Cal Signal at 500 pg/mL: -6%
[2]
  % of signal without MORAb-003 (MORAb-003 interference): 75%
[3]
  % of signal without MORAb-003 (MORAb-003 interference): 87%
[4]
  Drug suppression of serum: -0.93%
[5]
  Drug suppression of serum: -3.77%
[6]
  Drug suppression of serum: -52%
[7]
  percent inhibition (median, serum): 3%
[8]
  Drug Suppression of Cal Signal at 500 pg/mL: -4%
[9]
  Drug Suppression of Cal Signal at 500 pg/mL: -4%
[10]
  Drug Suppression of Cal Signal at 500 pg/mL: -11%
[11]
  percent inhibition (sample #DLSO-015, plasma): 10%
[12]
  % of signal without MORAb-003 (MORAb-003 interference): 68%
[13]
  Drug suppression of serum: 4.49%
[14]
  Drug Suppression of Cal Signal at 500 pg/mL: 8%
[15]
  Drug Suppression of Cal Signal at 500 pg/mL: -1%
[16]
  Drug Suppression of Cal Signal at 500 pg/mL: -7%
[17]
  Drug suppression of serum: 84.6%
[18]
  Drug Suppression of Cal Signal at 500 pg/mL: -11%
[19]
  Drug Suppression of Cal Signal at 500 pg/mL: -6%
[20]
  Drug suppression of serum: -59.7%
[21]
  % of signal without MORAb-003 (MORAb-003 interference): 57%
[22]
  Drug Suppression of Cal Signal at 500 pg/mL: -19%
[23]
  Drug Suppression of Cal Signal at 500 pg/mL: 0%
[24]
  % of signal without MORAb-003 (MORAb-003 interference): 54%
